The target of the assay is receptor binding domain (RBD) of the SARS-CoV-2 spike (SARS-CoV-2, UniProt P0DTC2, biotin (biotinylated; site not stated)). Briefly: BLI. The following applies: both partners purified.

B1: VHH H11D4 (VHH)
VHH: QVQLVESGGGLMQAGGSLRLSCAVSGRTFSTAAMGWFRQAPGKEREFVAAIRWSGGSAYYADSVKGRFTISRDKAKNTVYLQMNSLKYEDTAVYYCARTENVRSLLSDYATWPYDYWGQGTQVTVSS
notes: also called VHH11D4
In the case of B1, the binding result is given as “binds”.

B2: VHH-72 (VHH)
VHH: QVQLQESGGGLVQAGGSLRLSCAASGRTFSEYAMGWFRQAPGKEREFVATISWSGGSTYYTDSVKGRFTISRDNAKNTVYLQMNSLKPDDTAVYYCAAAGLGTVVSEWDYDYDYWGQGTQVTVSS
B2: the binding result was “binds”.

The values above are taken from PMC9481167, “Biosynthetic proteins targeting the SARS-CoV-2 spike as anti-virals” (PLoS Pathogens, 2022).
